The chains are these.
B1: C1orf137 (parent)
chain: LPQETNLTLKVCKPQAPQKLDPTL
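Further: lentivirally expressed fusions sorted by FACS into six bins by GFP to DsRed ratio, PSI derived from sequencing read proportions per bin multiplied by bin number.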

The variants in the series derive from B1. Briefly: protein stability index of a GFP-peptide fusion (GPS, HEK-293T) (PSI 1-6); higher = more stable. As to conditions: c terminus: a fixed tail appended.
Regarding LPQETNLTLKVCKPQAPNKLDPTL, the protein stability index turned out to be 3.52.

For the variant LPQETNLTLKVCKPQAPIKLDPTL, the protein stability index turned out to be 3.92.

Turning to LPQETNLTLKVCKPQAPCKLDPTL, the protein stability index was 3.79.

As to LPQETNLTLKVCKPQAPGKLDPTL, the protein stability index was 3.59.

In the case of LPQETNLTLKVCKPQAPVKLDPTL, the protein stability index was 3.56.

Regarding LPQETNLTLKVCKPQAPEKLDPTL, the protein stability index is 3.23.

As to LPQETNLTLKVCKPQAPAKLDPTL, the protein stability index was 4.65.

Turning to LPQETNLTLKVCKPQAPLKLDPTL, the protein stability index came to 3.31.

As for LPQETNLTLKVCKPQAPFKLDPTL, the protein stability index came out at 2.39.

For LPQETNLTLKVCKPQAPRKLDPTL, the protein stability index was found to be 3.8.

For LPQETNLTLKVCKPQAPKKLDPTL, the protein stability index was found to be 3.97.

As for LPQETNLTLKVCKPQAPPKLDPTL, the protein stability index was found to be 3.75.

On to LPQETNLTLKVCKPQAPDKLDPTL, for which the protein stability index was 4.59.

As for LPQETNLTLKVCKPQAPTKLDPTL, the protein stability index was 3.82.

Regarding LPQETNLTLKVCKPQAPSKLDPTL, the protein stability index is 3.58.

As for LPQETNLTLKVCKPQAPYKLDPTL, the protein stability index came to 3.13.

For LPQETNLTLKVCKPQAPHKLDPTL, the protein stability index was found to be 3.69.

For the variant LPQETNLTLKVCKPQAPMKLDPTL, the protein stability index worked out at 3.28.

Regarding LPQETNLTLKHCKPQAPQKLDPTL, the protein stability index is 4.08.

For the variant LPQETNLTLKWCKPQAPQKLDPTL, the protein stability index was found to be 2.44.

For LPQETNLTLKDCKPQAPQKLDPTL, the protein stability index came out at 4.91.

Consider LPQETNLTLKNCKPQAPQKLDPTL, for which the protein stability index is 4.21.

Consider LPQETNLTLKYCKPQAPQKLDPTL, for which the protein stability index turned out to be 3.82.

As for LPQETNLTLKFCKPQAPQKLDPTL, the protein stability index was 3.22.

LPQETNLTLKQCKPQAPQKLDPTL: the protein stability index stood at 3.32.

As to LPQETNLTLKICKPQAPQKLDPTL, the protein stability index turned out to be 3.24.

As for LPQETNLTLKCCKPQAPQKLDPTL, the protein stability index came out at 3.96.

Turning to LPQETNLTLKPCKPQAPQKLDPTL, the protein stability index turned out to be 4.54.

Regarding LPQETNLTLKKCKPQAPQKLDPTL, the protein stability index was determined as 3.65.

Regarding LPQETNLTLKGCKPQAPQKLDPTL, the protein stability index was 3.42.

For the variant LPQETNLTLKTCKPQAPQKLDPTL, the protein stability index came to 3.66.

LPQETNLTLKECKPQAPQKLDPTL: the protein stability index was determined as 5.09.

As to LPQETNLTLKLCKPQAPQKLDPTL, the protein stability index is 3.55.

Turning to LPQETNLTLKACKPQAPQKLDPTL, the protein stability index was determined as 4.12.

As to LPQETNLTLKMCKPQAPQKLDPTL, the protein stability index worked out at 3.77.

LPQETNLTLKSCKPQAPQKLDPTL: the protein stability index was 4.19.

For the variant LPQETNLTLKRCKPQAPQKLDPTL, the protein stability index came to 3.05.

Take LPQETNLTLKVCSPQAPQKLDPTL: the protein stability index turned out to be 4.14.

For the variant LPQETNLTLKVCRPQAPQKLDPTL, the protein stability index worked out at 3.01.

As for LPQETNLTLKVCLPQAPQKLDPTL, the protein stability index worked out at 2.96.

With LPQETNLTLKVCCPQAPQKLDPTL, the protein stability index stood at 3.24.

LPQETNLTLKVCTPQAPQKLDPTL: the protein stability index was 4.06.

Consider LPQETNLTLKVCFPQAPQKLDPTL, for which the protein stability index came to 2.11.

As to LPQETNLTLKVCGPQAPQKLDPTL, the protein stability index worked out at 4.33.

In the case of LPQETNLTLKVCAPQAPQKLDPTL, the protein stability index stood at 3.98.

For LPQETNLTLKVCEPQAPQKLDPTL, the protein stability index is 4.69.

For LPQETNLTLKVCWPQAPQKLDPTL, the protein stability index is 2.25.

LPQETNLTLKVCYPQAPQKLDPTL: the protein stability index was found to be 3.5.

Regarding LPQETNLTLKVCDPQAPQKLDPTL, the protein stability index came out at 4.88.

In the case of LPQETNLTLKVCIPQAPQKLDPTL, the protein stability index came to 2.33.

On to LPQETNLTLKVCHPQAPQKLDPTL, for which the protein stability index worked out at 3.56.

In the case of LPQETNLTLKVCNPQAPQKLDPTL, the protein stability index was 4.03.

As for LPQETNLTLKVCPPQAPQKLDPTL, the protein stability index came to 4.43.

As to LPQETNLTLKVCVPQAPQKLDPTL, the protein stability index came out at 3.42.

Turning to LPQETNLTLKVCMPQAPQKLDPTL, the protein stability index is 3.05.

As for LPQETNLTLKVCQPQAPQKLDPTL, the protein stability index is 4.14.

With LPQETNLTLKVCKPQAWQKLDPTL, the protein stability index turned out to be 2.3.

Take LPQETNLTLKVCKPQARQKLDPTL: the protein stability index is 3.17.

Turning to LPQETNLTLKVCKPQAHQKLDPTL, the protein stability index was 3.58.

Regarding LPQETNLTLKVCKPQAKQKLDPTL, the protein stability index was 4.13.

For LPQETNLTLKVCKPQASQKLDPTL, the protein stability index was 3.62.

For LPQETNLTLKVCKPQAIQKLDPTL, the protein stability index came out at 4.

As for LPQETNLTLKVCKPQAYQKLDPTL, the protein stability index stood at 3.57.

With LPQETNLTLKVCKPQANQKLDPTL, the protein stability index stood at 3.21.

For LPQETNLTLKVCKPQAEQKLDPTL, the protein stability index amounted to 4.27.

For the variant LPQETNLTLKVCKPQATQKLDPTL, the protein stability index is 3.81.

For LPQETNLTLKVCKPQAGQKLDPTL, the protein stability index was found to be 3.74.

On to LPQETNLTLKVCKPQAAQKLDPTL, for which the protein stability index was 3.97.

As to LPQETNLTLKVCKPQAVQKLDPTL, the protein stability index worked out at 3.95.

Regarding LPQETNLTLKVCKPQAFQKLDPTL, the protein stability index is 3.03.

LPQETNLTLKVCKPQAMQKLDPTL: the protein stability index is 3.68.

For LPQETNLTLKVCKPQACQKLDPTL, the protein stability index turned out to be 3.51.

As for LPQETNLTLKVCKPQAQQKLDPTL, the protein stability index worked out at 4.36.

As for LPQETNLTLKVCKPQADQKLDPTL, the protein stability index amounted to 4.52.

As to LPQETNLTLKVCKPQALQKLDPTL, the protein stability index was 3.07.

LPQETNLTLKVCKPWAPQKLDPTL: the protein stability index worked out at 3.5.

With LPQETNLTLKVCKPLAPQKLDPTL, the protein stability index came to 2.96.

In the case of LPQETNLTLKVCKPTAPQKLDPTL, the protein stability index came to 4.08.

Take LPQETNLTLKVCKPFAPQKLDPTL: the protein stability index amounted to 2.69.

Regarding LPQETNLTLKVCKPIAPQKLDPTL, the protein stability index worked out at 3.03.

With LPQETNLTLKVCKPSAPQKLDPTL, the protein stability index is 3.86.

With LPQETNLTLKVCKPGAPQKLDPTL, the protein stability index came out at 3.93.

With LPQETNLTLKVCKPKAPQKLDPTL, the protein stability index is 3.69.

Turning to LPQETNLTLKVCKPMAPQKLDPTL, the protein stability index was found to be 3.28.

Turning to LPQETNLTLKVCKPHAPQKLDPTL, the protein stability index was 3.65.

In the case of LPQETNLTLKVCKPRAPQKLDPTL, the protein stability index came out at 3.69.

Turning to LPQETNLTLKVCKPCAPQKLDPTL, the protein stability index was determined as 3.58.

Consider LPQETNLTLKVCKPAAPQKLDPTL, for which the protein stability index stood at 3.91.

Take LPQETNLTLKVCKPNAPQKLDPTL: the protein stability index turned out to be 4.04.

Turning to LPQETNLTLKVCKPDAPQKLDPTL, the protein stability index was 4.49.

With LPQETNLTLKVCKPVAPQKLDPTL, the protein stability index stood at 3.65.

With LPQETNLTLKVCKPYAPQKLDPTL, the protein stability index was 2.64.

For LPQETNLTLKVCKPEAPQKLDPTL, the protein stability index was 4.41.

In the case of LPQETNLTLKVCKPQWPQKLDPTL, the protein stability index came to 2.02.

The values are drawn from the supplement of paper PMC10567573.
